Read-outs that look alike come from different tables or passages of the source.
B4: MBP-fused phyA^OPM (domain or fragment)
chain: KIDGIQELEAVTSEMVRLIETATVPILAVDSDGLVNGWNTKIAELTGLSVDEAIGKHFLTLVEDSSVEIVKRMLENALEGTEEQNVQFEIKTHLSRADAGPISLVVNACASRDLHENVVGVCFVAHDLTGQKTVMDKFTRIEGDYKAIIQNPNPLIPPIFGTDEFGWCTEWNPAMSKLTGLKREEVIDKMLLGEVFGTQKSCCRLKNQEAFVNLGIVLNNAVTSQDPEKVSFAFFTRGGKYVECLLCVSKKLDREGVVTGVFCFLQLASHELQQALHVQRLAERTAVKRLKALAYIKRQIRNPLSGIMFTRKMIEGTELGPEQRRILQTSALCQKQLSKILDDSDLESIIEGCLDLEMKEFTLNEVLTASTSQVMMKSNGKSVRITNETGEEVMSDTLYGDSIRLQQVLADFMLMAVNFTPSGGQLTVSASLRKDQLGRSVHLANLEIRLTHTGAGIPEFLLNQMFGTEEDVSEEGLSLMVSRKLVKLMNGDVQYLRQAGKSSFIITAELAAANK

What was measured:
Test in all cases: pull-down
[1] = biological target: T1, GST-fused APB (PIF3 1-113 a.a.) (Arabidopsis thaliana, UniProt O80536 1-113)
T1 sequence: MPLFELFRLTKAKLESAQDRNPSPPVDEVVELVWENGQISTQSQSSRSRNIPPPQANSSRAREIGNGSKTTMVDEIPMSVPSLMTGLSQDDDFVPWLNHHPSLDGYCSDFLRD

MBP-fused phyB^OPM = biological target: T2, MBP-fused phyB^OPM (Arabidopsis thaliana, UniProt P14713 642-1172)
T2 sequence: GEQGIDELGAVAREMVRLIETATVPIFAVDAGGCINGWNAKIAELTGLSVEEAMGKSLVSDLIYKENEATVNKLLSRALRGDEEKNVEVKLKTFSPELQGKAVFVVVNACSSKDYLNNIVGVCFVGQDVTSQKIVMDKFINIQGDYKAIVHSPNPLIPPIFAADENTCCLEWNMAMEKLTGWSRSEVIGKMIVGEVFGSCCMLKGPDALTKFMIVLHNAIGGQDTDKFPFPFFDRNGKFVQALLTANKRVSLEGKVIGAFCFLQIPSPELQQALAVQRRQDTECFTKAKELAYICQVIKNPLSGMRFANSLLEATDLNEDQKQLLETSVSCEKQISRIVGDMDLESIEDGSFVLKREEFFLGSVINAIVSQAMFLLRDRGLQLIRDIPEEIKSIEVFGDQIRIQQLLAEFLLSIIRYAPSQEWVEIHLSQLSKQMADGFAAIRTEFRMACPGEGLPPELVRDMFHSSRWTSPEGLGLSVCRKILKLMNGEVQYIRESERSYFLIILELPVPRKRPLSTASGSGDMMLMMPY

MBP-fused phyA^OPM [2] = biological target: B4
MBP-fused phyA^OPM [3] = biological target: B4; remark: listed apart in the source
GST-PIF3 = biological target: T3, GST-PIF3 (Arabidopsis thaliana, UniProt O80536 1-524)
T3 sequence: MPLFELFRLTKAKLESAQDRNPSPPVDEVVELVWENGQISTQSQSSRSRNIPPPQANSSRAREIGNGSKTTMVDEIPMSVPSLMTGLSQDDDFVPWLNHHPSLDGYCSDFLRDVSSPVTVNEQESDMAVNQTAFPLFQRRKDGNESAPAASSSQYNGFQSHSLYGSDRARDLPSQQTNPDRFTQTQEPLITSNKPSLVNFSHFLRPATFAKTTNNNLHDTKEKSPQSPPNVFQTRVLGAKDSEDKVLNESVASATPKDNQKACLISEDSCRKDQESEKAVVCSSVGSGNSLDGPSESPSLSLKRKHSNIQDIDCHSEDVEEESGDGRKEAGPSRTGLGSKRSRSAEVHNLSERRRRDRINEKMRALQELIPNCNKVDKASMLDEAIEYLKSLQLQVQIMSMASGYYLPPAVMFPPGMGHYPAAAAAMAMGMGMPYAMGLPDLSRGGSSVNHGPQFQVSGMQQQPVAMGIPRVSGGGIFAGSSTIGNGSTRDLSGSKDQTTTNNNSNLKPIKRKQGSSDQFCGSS

SBP-fused phyA^PSM = biological target: T4, SBP-fused phyA^PSM (Arabidopsis thaliana, UniProt P14712 1-615, chromophore-bound (phycocyanobilin, PCB))
T4 sequence: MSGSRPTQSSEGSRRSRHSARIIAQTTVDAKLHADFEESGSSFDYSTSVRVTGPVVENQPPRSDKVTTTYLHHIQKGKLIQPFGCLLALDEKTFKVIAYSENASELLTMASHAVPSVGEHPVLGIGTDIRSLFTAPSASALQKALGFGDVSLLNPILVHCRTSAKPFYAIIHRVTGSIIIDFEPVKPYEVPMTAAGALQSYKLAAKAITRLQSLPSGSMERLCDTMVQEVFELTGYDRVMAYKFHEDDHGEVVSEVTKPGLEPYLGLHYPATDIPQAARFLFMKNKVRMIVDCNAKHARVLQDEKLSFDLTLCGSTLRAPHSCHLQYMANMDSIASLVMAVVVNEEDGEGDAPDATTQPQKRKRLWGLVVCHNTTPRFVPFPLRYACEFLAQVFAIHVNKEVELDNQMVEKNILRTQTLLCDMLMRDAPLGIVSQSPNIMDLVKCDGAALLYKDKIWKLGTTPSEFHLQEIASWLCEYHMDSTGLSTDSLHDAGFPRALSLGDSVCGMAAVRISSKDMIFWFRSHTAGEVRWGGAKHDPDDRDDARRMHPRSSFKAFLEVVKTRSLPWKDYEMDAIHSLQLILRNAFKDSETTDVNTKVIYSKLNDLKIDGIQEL

B1: SBP-fused phyB^PSM (domain or fragment)
chain: MVSGVGGSGGGRGGGRGGEEEPSSSHTPNNRRGGEQAQSSGTKSLRPRSNTESMSKAIQQYTVDARLHAVFEQSGESGKSFDYSQSLKTTTYGSSVPEQQITAYLSRIQRGGYIQPFGCMIAVDESSFRIIGYSENAREMLGIMPQSVPTLEKPEILAMGTDVRSLFTSSSSILLERAFVAREITLLNPVWIHSKNTGKPFYAILHRIDVGVVIDLEPARTEDPALSIAGAVQSQKLAVRAISQLQALPGGDIKLLCDTVVESVRDLTGYDRVMVYKFHEDEHGEVVAESKRDDLEPYIGLHYPATDIPQASRFLFKQNRVRMIVDCNATPVLVVQDDRLTQSMCLVGSTLRAPHGCHSQYMANMGSIASLAMAVIINGNEDDGSNVASGRSSMRLWGLVVCHHTSSRCIPFPLRYACEFLMQAFGLQLNMELQLALQMSEKRVLRTQTLLCDMLLRDSPAGIVTQSPSIMDLVKCDGAAFLYHGKYYPLGVAPSEVQIKDVVEWLLANHADSTGLSTDSLGDAGYPGAAALGDAVCGMAVAYITKRDFLFWFRSHTAKEIKWGGAKHHPEDKDDGQRMHPRSSFQAFLEVVKSRSQPWETAEMDAIHSLQLILRDSFKESEAAMNSKVVDGVVQPCRDMAGEQGIDELGAV
modifications: chromophore-bound (phycocyanobilin, PCB)
- fold strength against the phyB^OPM-APA interaction (m39 on m40) [1]: ~2 fold

B2: GST-tagged PIF1 (natural protein)
chain: MHHFVPDFDTDDDYVNNHNSSLNHLPRKSITTMGEDDDLMELLWQNGQVVVQNQRLHTKKPSSSPPKLLPSMDPQQQPSSDQNLFIQEDEMTSWLHYPLRDDDFCSDLLFSAAPTATATATVSQVTAARPPVSSTNESRPPVRNFMNFSRLRGDFNNGRGGESGPLLSKAVVRESTQVSPSATPSAAASESGLTRRTDGTDSSAVAGGGAYNRKGKAVAMTAPAIEITGTSSSVVSKSEIEPEKTNVDDRKRKEREATTTDETESRSEETKQARVSTTSTKRSRAAEVHNLSERKRRDRINERMKALQELIPRCNKSDKASMLDEAIEYMKSLQLQIQMMSMGCGMMPMMYPGMQQYMPHMAMGMGMNQPIPPPSFMPFPNMLAAQRPLPTQTHMAGSGPQYPVHASDPSRVFVPNQQYDPTSGQPQYPAGYTDPYQQFRGLHPTQPPQFQNQATSYPSSSRVSSSKESEDHGNHTTG
- binding result (MBP-fused phyB^OPM): binds
- binding result (MBP-fused phyA^OPM [2]): binds

B3: GST-fused APA (PIF3 86-221 a.a.) (domain or fragment)
chain: GLSQDDDFVPWLNHHPSLDGYCSDFLRDVSSPVTVNEQESDMAVNQTAFPLFQRRKDGNESAPAASSSQYNGFQSHSLYGSDRARDLPSQQTNPDRFTQTQEPLITSNKPSLVNFSHFLRPATFAKTTNNNLHDTK
- binding result (MBP-fused phyA^OPM [3]): binds
- binding result (MBP-fused phyB^OPM): binds

Binder: B4
- binding result (GST-PIF3): binds
- binding result (SBP-fused phyA^PSM): binds
